A short description of series [1]: Distribution coefficient (logD), octanol/PBS. In kind it is physicochemical. As to the method:
A volume of 500 μl PBS including 0.5 MBq radioligand (approximately 0.5 μg peptide) was combined with 500 μl octanol; the mixture was vortexed for 15 min and centrifuged for 2 min at 2000 rcf. From each phase, an aliquot (50 μl) was pipetted out and measured in a 2480 Wizard2 Automatic Gamma Counter (PerkinElmer, Vienna, Austria). Each measurement was repeated five times. LogD value was calculated as the average log ratio of the radioactivity in the organic fraction and the PBS fraction.

The nature of series [2]: Ex vivo biodistribution in mice bearing M21/M21-L xenografts. The conditions noted are these: mouse, in vivo, iv. On the procedure: (§1) For the induction of tumor xenografts, female, athymic BALB/c nude mice (Charles River Laboratories) were injected subcutaneously with either 5 × 10^6 integrin αvβ3-positive M21 cells into the right hind limb and with 5 × 10^6 integrin αvβ3-negative M21-L cells (negative control) into the left hind limb of the same mouse. […] On the day of the experiment, [^68Ga]FSC(succ-RGD)3, [^68Ga]FSC(RGDfE)3, or [^68Ga]FSC(Mal-RGD)3 (∼0.5 MBq/mouse, ∼0.5 μg peptide, respectively) was intravenously injected in the lateral tail vein. Mice were euthanized by cervical dislocation at 1 and 2 h (only for [^68Ga]FSC(succ-RGD)3) after injection. Organs (spleen, pancreas, stomach, intestine, kidney, liver, heart, and lung), blood, muscle tissue, and tumors were dissected and weighed. Activity of the different samples was measured in the gamma counter. Results were expressed as percentage of injected dose per gram tissue (% ID/g).

For series [3], the system named is integrin αvβ3-positive (M21) and integrin αvβ3-negative (M21-L) human melanoma tumors. Described as above. As to the method:
as §1

Series [4] relates to M21 cells (integrin αvβ3 positive). As to the kind of experiment: Internalization assay in M21 cells. The conditions noted are these: 90-min incubation, 37 °C. The class given is cell-based, human. As to the method:
One-milliliter aliquots in Eppendorf tubes were incubated at 37 °C for 1 h in triplicates, and [^68Ga]FSC(succ-RGD)3, [^68Ga]FSC(RGDfE)3, or [^68Ga]FSC(Mal-RGD)3 (approximately 1.5 × 10^6 cpm, 1.2 μg peptides) in PBS with 0.5 % BSA (150 μl, total series) or with 10 μM c(RGDyV) in PBS/0.5 % BSA (150 μl, nonspecific series) at 37 °C was added. After 90-min incubation was stopped by centrifugation, the medium was removed followed by washing (twice) with ice-cold Tris-buffered saline. After incubation in acid wash buffer (20 mM acetate buffer, pH 4.5) at 37 °C for 5 min (two times) and centrifugation, membrane bound activity was collected in plastic vials. Internalized radioligand fraction was collected after lysing cells by addition of 2 M NaOH. The internalized activity was expressed as percentage of total activity per milligram protein after spectrophotometric determination of protein (Bradford assay) in the NaOH fraction.

The subject of series [5] is integrin αvβ3-positive M21 tumor. The conditions noted are these: mouse, in vivo, iv.
Procedure: To compare the imaging properties of [^68Ga]FSC(succ-RGD)3, [^68Ga]FSC(RGDfE)3, and [^68Ga]FSC(Mal-RGD)3, microPET/CT imaging experiments were conducted on an Inveon microPET/CT scanner (Siemens Preclinical Solutions, Knoxville, USA). BALB/c nude mice bearing M21-positive tumor xenografts were administered with [^68Ga]FSC(succ-RGD)3 (or [^68Ga]FSC(RGDfE)3, [^68Ga]FSC(Mal-RGD)3, ∼5 MBq/mouse, ∼5 μg peptide) via intravenous (i.v.) injection. The body temperature of mice was maintained at 37 °C on the scanner bed and in the incubation chambers using heating pads. Dynamic 10-min duration PET scans were performed for 50 min while static PET scans (10 min) were performed at 1-h post-injection (p.i.), followed by a 25-min CT scan (spatial resolution, 113 μm; 80 kV, 500 mA). The mice remained under general anesthesia (isoflurane/O2) during the time between injection and imaging. […] Spherical isocontours were set at 50 % of the maximal pixel value to measure uptake values (Bq/ml) in kidneys, heart, and tumor.
The nature of series [6]: MicroPET/CT imaging in U87MG tumor-bearing mice. As to conditions: mouse, uptake value in tumor (ROI analysis), U87MG xenograft, PET, 90 min p.i., retro-orbital. On the procedure: To investigate the capabilities of binding to the integrin αvβ3 receptors in the different tumor xenograft models and, at the same time, compare the imaging properties of [^68Ga]FSC(succ-RGD)3 and [^68Ga]NODAGA-RGD, two U87MG tumor-bearing mice were administered retro-orbitally (r.o.) under general anesthesia with [^68Ga]FSC(succ-RGD)3 and [^68Ga]NODAGA-RGD each other (∼6 MBq/mouse, ∼5 μg peptide) at continued days. For the induction of tumor xenografts, female, athymic BALB/c nude mice (AnLab, Prague, Czech Republic) were injected subcutaneously with 5 × 10^6 U87MG cells into the right flank. The tumors were allowed to grow until they had reached a volume of 0.5 to 0.8 cm^3. Imaging experiments were conducted on an Albira microPET/SPECT/CT imaging system (Bruker Biospin Corporation, Woodbridge, CT, USA). MicroPET/CT images were acquired under general anesthesia (isoflurane/O2) and heating at 37 °C. PET data for each mouse was recorded via either dynamic imaging for 90 min (5-min PET scan per frame) or static scans (a 5-min PET scan (axial FOV 148 mm) was performed, followed by a 25-min CT scan (axial FOV 65 mm, 45 kVp, 400 μA, at 600 projections)) at 90 min p.i. […] The uptake values (%ID/g) in kidneys, heart, and tumor were analyzed by drawing standardized volumes of interest.

Series [7] relates to integrin αvβ3-positive (M21) and integrin αvβ3-negative (M21-L) human melanoma tumors. The conditions noted are these: 1 h, cited from earlier work.
For another series, the target named is T1, integrin αvβ3 (Homo sapiens, UniProt P05106+P06756).
T1 construct: purchased Millipore-Chemicon, Temecula, CA, USA
T1 sequence (P06756 31-889 limits assumed): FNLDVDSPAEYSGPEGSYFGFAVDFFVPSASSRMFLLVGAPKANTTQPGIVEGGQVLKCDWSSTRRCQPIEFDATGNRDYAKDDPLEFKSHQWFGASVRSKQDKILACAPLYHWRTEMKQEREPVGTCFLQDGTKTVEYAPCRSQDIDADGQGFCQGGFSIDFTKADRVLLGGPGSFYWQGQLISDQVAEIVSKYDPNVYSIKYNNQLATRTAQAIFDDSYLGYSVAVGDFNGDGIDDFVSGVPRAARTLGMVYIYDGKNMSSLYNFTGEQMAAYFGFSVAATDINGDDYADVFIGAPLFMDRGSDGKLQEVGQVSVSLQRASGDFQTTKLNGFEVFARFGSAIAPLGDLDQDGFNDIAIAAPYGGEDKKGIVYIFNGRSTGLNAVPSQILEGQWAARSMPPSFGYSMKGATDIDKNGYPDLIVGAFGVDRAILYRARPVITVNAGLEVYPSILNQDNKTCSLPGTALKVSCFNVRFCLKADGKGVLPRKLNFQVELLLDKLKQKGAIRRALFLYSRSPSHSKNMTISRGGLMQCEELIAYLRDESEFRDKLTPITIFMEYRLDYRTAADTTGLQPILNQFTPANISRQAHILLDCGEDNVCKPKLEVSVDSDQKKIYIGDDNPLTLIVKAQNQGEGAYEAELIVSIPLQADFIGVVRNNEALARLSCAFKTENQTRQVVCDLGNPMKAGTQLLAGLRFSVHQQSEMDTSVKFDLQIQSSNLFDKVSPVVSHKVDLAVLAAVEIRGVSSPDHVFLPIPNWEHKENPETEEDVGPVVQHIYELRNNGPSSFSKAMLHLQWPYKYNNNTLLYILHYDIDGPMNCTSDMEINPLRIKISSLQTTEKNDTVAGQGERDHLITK
T1 sequence (P06756 891-1048 limits assumed): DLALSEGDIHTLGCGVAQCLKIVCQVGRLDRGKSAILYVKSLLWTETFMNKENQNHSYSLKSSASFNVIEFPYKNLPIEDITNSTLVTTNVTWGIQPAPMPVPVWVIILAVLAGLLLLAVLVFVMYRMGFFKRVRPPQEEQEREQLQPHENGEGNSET
T1 sequence (P05106 27-788): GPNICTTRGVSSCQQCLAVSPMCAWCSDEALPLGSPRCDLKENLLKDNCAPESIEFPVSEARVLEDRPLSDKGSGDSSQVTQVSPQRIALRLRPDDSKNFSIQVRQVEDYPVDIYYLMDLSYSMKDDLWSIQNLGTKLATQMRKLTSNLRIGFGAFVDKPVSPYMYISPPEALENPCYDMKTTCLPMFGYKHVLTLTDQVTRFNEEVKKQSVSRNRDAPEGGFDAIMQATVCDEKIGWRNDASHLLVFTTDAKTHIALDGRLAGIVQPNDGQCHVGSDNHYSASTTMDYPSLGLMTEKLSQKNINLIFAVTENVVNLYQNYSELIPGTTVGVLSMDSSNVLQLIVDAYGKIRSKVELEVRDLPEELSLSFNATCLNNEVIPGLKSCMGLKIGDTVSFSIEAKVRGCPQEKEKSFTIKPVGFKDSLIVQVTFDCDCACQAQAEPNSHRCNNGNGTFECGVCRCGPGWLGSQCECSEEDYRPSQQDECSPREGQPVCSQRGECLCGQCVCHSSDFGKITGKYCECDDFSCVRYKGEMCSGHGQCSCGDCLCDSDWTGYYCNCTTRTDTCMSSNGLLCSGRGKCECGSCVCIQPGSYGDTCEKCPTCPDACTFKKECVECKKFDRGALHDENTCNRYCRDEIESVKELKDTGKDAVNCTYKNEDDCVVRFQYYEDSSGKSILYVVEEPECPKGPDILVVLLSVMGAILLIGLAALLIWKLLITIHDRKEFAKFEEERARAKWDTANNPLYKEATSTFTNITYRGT
As to the kind of experiment: Binding affinity for immobilized integrin αvβ3, displacement of [^125I]c(RGDyV). As to conditions: isolated integrin αvβ3, radioligand [^125I]c(RGDyV), three independent measurements. As to the method:
In vitro binding affinities of cyclo(-Arg-Gly-Asp-DTyr-Val-) (c(RGDyV)) and the three FSC-RGD conjugates were determined by using isolated integrin αvβ3 (Millipore-Chemicon, Temecula, CA, USA) and I-125-labeled c(RGDyV) as radioligand. ([^125I]c(RGDyV) was produced as described in [18]). To integrin αvβ3, coated overnight at 4 °C onto 96-well plates (Nunc, Thermo Fisher Scientific, Vienna, Austria), [^125I]c(RGDyV) and the corresponding peptides in increasing concentrations from 0.001 to 100 nM were added. Plates were washed, and integrin bound activity was recovered with 2-M NaOH solution and counted in a gamma counter. OriginPro 8.5 software (Northampton, MA, USA) was used to calculate half maximal inhibitory concentration (IC50) values in three independent measurements.

The mark [8] stands for this setting: M21 model, 1 h p.i., not statistically significant.

Like-named read-outs stand apart in the source and are kept apart here.

For the compound `C/C1=C/C(=O)N(O)CCC[C@H](NC(=O)CC[C@@H]2NC(=O)[C@@H](Cc3ccccc3)NC(=O)[C@H](CC(=O)O)NC(=O)CNC(=O)[C@H](CCCNC(=N)N)NC2=O)C(=O)OCC/C(C)=C\C(=O)N(O)CCC[C@H](NC(=O)CC[C@@H]2NC(=O)[C@@H](Cc3ccccc3)NC(=O)[C@H](CC(=O)O)NC(=O)CNC(=O)[C@H](CCCNC(=N)N)NC2=O)C(=O)OCC/C(C)=C\C(=O)N(O)CCC[C@H](NC(=O)CC[C@@H]2NC(=O)[C@@H](Cc3ccccc3)NC(=O)[C@H](CC(=O)O)NC(=O)CNC(=O)[C@H](CCCNC(=N)N)NC2=O)C(=O)OCC1` [[^68Ga]FSC(RGDfE)3, metal not drawn], the pH-dependent lipophilicity (logD) in series [1] is -3.8 ± 0.2. Moreover, the tissue uptake at 1 h in series [2] (Blood uptake) came to 0.4 ± 0.08 %ID/g; in series [2] (Heart uptake) it was 1.52 ± 0.13 %ID/g; in series [2] (Intestine uptake), 3.21 ± 0.48 %ID/g; in series [2] (Kidneys uptake), 11.5 ± 1.87 %ID/g; in series [2] (Liver uptake) it was 12.1 ± 1.34 %ID/g; in series [2] (Lung uptake), 2.48 ± 1.07 %ID/g. Also, the tissue uptake at 1 h in series [2] (M21-L tumor uptake) came out at 1.1 ± 0.3 %ID/g; in series [2] (M21 tumor uptake) it was 5.49 ± 0.94 %ID/g; in series [2] (Muscle uptake) it was 0.94 ± 0.09 %ID/g; in series [2] (Pancreas uptake), 1.04 ± 0.12 %ID/g; in series [2] (Spleen uptake), 9.13 ± 0.27 %ID/g; in series [2] (Stomach uptake) it was 4.76 ± 0.25 %ID/g. The M21-L tumor uptake in series [3] (mouse, in vivo, iv, 1 h) was 1.25 ± 0.06 % ID/g. Also, in series [4], the “internalized activity, % of total activity per milligram protein” value was determined as 5.3 ± 0.7 % cpm/mg.

With `C/C1=C/C(=O)N(O)CCC[C@H](NC(=O)CCC(=O)NCCCC[C@@H]2NC(=O)[C@@H](Cc3ccccc3)NC(=O)[C@H](CC(=O)O)NC(=O)CNC(=O)[C@H](CCCNC(=N)N)NC2=O)C(=O)OCC/C(C)=C\C(=O)N(O)CCC[C@H](NC(=O)CCC(=O)NCCCC[C@@H]2NC(=O)[C@@H](Cc3ccccc3)NC(=O)[C@H](CC(=O)O)NC(=O)CNC(=O)[C@H](CCCNC(=N)N)NC2=O)C(=O)OCC/C(C)=C\C(=O)N(O)CCC[C@H](NC(=O)CCC(=O)NCCCC[C@@H]2NC(=O)[C@@H](Cc3ccccc3)NC(=O)[C@H](CC(=O)O)NC(=O)CNC(=O)[C@H](CCCNC(=N)N)NC2=O)C(=O)OCC1` [[^68Ga]FSC(succ-RGD)3, metal not drawn], the “earliest visualization of the receptor-positive tumor in dynamic PET” value in series [5] was determined as 10 min p.i. Also, in series [1], the logD is -3.6 ± 0.1. Also, the tissue uptake at 1 h in series [2] (Heart uptake) was 1.21 ± 0.28 %ID/g; in series [2] (Intestine uptake), 2.41 ± 0.8 %ID/g; in series [2] (Kidneys uptake) it was 8.12 ± 1.09 %ID/g; in series [2] (Liver uptake), 3.54 ± 0.63 %ID/g; in series [2] (Lung uptake) it was 2.42 ± 0.22 %ID/g; in series [2] (M21-L tumor uptake) it was 1.25 ± 0.06 %ID/g. The tissue uptake at 1 h in series [2] (M21 tumor uptake) turned out to be 3.69 ± 0.94 %ID/g; in series [2] (Muscle uptake), 0.52 ± 0.19 %ID/g; in series [2] (Pancreas uptake), 0.61 ± 0.13 %ID/g; in series [2] (Stomach uptake), 2.02 ± 1.35 %ID/g. Besides, the M21/kidneys ratio came to 0.5 ± 0.1 in series [3] (1 h p.i.) and 0.6 ± 0.1 in series [3] (2 h p.i.). This compound also registered a Blood uptake in series [3] (mouse, in vivo, iv, 1 h) of 0.63 ± 0.26 % ID/g. The compound also displayed an M21-L tumor uptake in series [3] (mouse, in vivo, iv, 1 h) of 1.10 ± 0.30 % ID/g. In addition, the Spleen uptake in series [3] (mouse, in vivo, iv, 1 h) came to 3.27 ± 0.64 % ID/g. The compound further displayed a tissue uptake at […] in series [6] of 3.8 %ID/g. In addition, the “internalized activity, % of total activity per milligram protein” value in series [4] turned out to be 5.7 ± 0.6 % cpm/mg.

Consider `N=C(N)NCCC[C@@H]1NC(=O)[C@H](CCCCNC(=O)CCC(C(=O)O)N2CCN(CC(=O)O)CCN(CC(=O)O)CC2)NC(=O)[C@@H](Cc2ccccc2)NC(=O)[C@H](CC(=O)O)NC(=O)CNC1=O` (stereo partly drawn) [[^68Ga]NODAGA-RGD, metal not drawn], for which, in series [3] (setting [8]), the “higher tumor to blood ratio versus [^68Ga]FSC(succ-RGD)3” value was 1.8 fold and the “higher tumor to kidney ratio versus [^68Ga]FSC(succ-RGD)3” value stood at 2 fold. Moreover, the M21/kidneys ratio in series [7] (same murine model, calculated based on the literature data ref 14) is 1.0 ± 0.4. Further, the M21 tumor uptake in series [7] (mouse, in vivo) is listed as 1.3 %ID/g.

For `CC(C)[C@@H]1NC(=O)[C@@H](Cc2ccc(O)cc2)NC(=O)[C@H](CC(=O)O)NC(=O)CNC(=O)[C@H](CCCNC(=N)N)NC1=O` [c(RGDyV), cyclo(-Arg-Gly-Asp-DTyr-Val-)], the IC50 at integrin αvβ3 turned out to be 6.2 ± 1.6 nM.

As a reminder, the logD is the decadic logarithm of the distribution of all forms, ionised or not, between an organic phase and buffer at a given pH. High values mean higher lipophilicity, low ones lower lipophilicity. What is called tissue uptake is the percentage of the injected dose found per gram of tissue. The term IC50 denotes the concentration at which inhibition is half-maximal. Read a low IC50 as higher potency.

(Values after publication PMC5010584, “Comparison of Ga-68-Labeled Fusarinine C-Based Multivalent RGD Conjugates and [^68Ga]NODAGA-RGD—In Vivo Imaging Studies in Human Xenograft Tumors” (Molecular Imaging and Biology, 2016).)
